Measurements reported in paper PMC12732928, “The Study of Ice-Binding Protein Oligomeric Complexes” (International Journal of Molecular Sciences, 2025).
“And” between values parts separate entries of the source, which are not always exact repeats. Equal values may be shown once.

How the values were obtained:
[1] = target: the molecule itself; assay: MALDI-TOF mass spectrometry; samples obtained after freezing; otherwise as the other MALDI spectra; high-order forms of low intensity
[2] = target: the molecule itself; assay: MALDI-TOF mass spectrometry; protein at 0.4 mM desalted on a C4 ZipTip, alpha-CHCA matrix, positive linear mode, 8-190 kDa

B1: ice-binding protein P80961 from longhorn sculpin (Myoxocephalus octodecemspinosus) (natural protein)
chain: MKFSLVATIVLLALAQGSFAQGAADLESLGQYFEEMKTKLIQDMTEIIRSQDLANQAQAFVEDKKTQLQPLVAQIQEQMKTVATNVEEQIRPLTANVQAHLQPQIDNFQKQMEAIIKKLTDQTMAIEN
stoichiometry N [1]: 5 and 6 and 7 | stoichiometry N [2]: 2 and 3 and 4
